Sequences and labels used below:
B1: P5 (reduced form) (enzyme, human, UniProt Q15084 20-440, looked up)
chain: LYSSSDDVIELTPSNFNREVIQSDSLWLVEFYAPWCGHCQRLTPEWKKAATALKDVVKVGAVDADKHHSLGGQYGVQGFPTIKIFGSNKNRPEDYQGGRTGEAIVDAALSALRQLVKDRLGGRSGGYSSGKQGRSDSSSKKDVIELTDDSFDKNVLDSEDVWMVEFYAPWCGHCKNLEPEWAAAASEVKEQTKGKVKLAAVDATVNQVLASRYGIRGFPTIKIFQKGESPVDYDGGRTRSDIVSRALDLFSDNAPPPELLEIINEDIAKRTCEEHQLCVVAVLPHILDTGAAGRNSYLEVLLKLADKYKKKMWGWLWTEAGAQSELETALGIGGFGYPAMAAINARKMKFALLKGSFSEQGINEFLRELSFGRGSTAPVGGGAFPTIVEREPWDGRDGELPVEDDIDLSDVELDDLGKDEL
notes: human P5 (PDIA6), Lys20-Leu440, cloned into pET15b; Used reduced (10 mM dithiothreitol treatment during purification); this was not measured here; also called ERp5; PDIA6; source: E. coli BL21 (DE3), purified (Ni-NTA, thrombin digestion, RESOURCE Q, Superdex 200)

Common to all, as to settings: both partners purified
Assay [1] deals with T1, ERp72 (human, UniProt P13667 25-645).
T1 construct: human ERp72, Glu25-Leu645, cloned into pET15b; source: E. coli BL21 (DE3), purified (Ni-NTA, thrombin digestion, RESOURCE Q, Superdex 200)
T1 sequence (looked up): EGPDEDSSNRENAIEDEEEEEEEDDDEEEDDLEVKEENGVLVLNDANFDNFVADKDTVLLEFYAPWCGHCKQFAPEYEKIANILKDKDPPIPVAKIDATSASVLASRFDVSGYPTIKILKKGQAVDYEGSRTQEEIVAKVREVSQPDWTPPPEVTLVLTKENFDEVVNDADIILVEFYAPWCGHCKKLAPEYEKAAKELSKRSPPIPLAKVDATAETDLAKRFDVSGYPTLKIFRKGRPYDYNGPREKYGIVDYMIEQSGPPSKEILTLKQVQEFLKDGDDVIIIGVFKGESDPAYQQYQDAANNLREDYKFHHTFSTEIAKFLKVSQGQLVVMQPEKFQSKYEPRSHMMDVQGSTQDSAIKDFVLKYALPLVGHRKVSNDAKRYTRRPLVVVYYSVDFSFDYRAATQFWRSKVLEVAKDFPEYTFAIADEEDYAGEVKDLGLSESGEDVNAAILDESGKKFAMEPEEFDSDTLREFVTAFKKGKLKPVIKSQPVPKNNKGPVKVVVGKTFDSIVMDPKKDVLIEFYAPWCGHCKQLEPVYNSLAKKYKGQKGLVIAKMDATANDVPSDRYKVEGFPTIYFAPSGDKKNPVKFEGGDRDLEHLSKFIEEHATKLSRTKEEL
The assay can be described thus: far-Western, overlay or dot blot; reduced purified prey proteins (from 40 µM stocks, 3 µL) dotted on nitrocellulose; blocked with 5% skim milk in TBST; incubated with 0.2 µM reduced P5 in 20 mM Tris-HCl pH 7.6, 150 mM NaCl, 0.05% Tween 20 at 4 °C for 3 h; bound P5 detected with anti-P5 antiserum.

The target of assay [2] is T2, PDI (human, UniProt P07237 18-508).
T2 construct: human PDI (P4HB), Asp18-Leu508, cloned into pET15b; also called protein disulfide isomerase; P4HB; source: E. coli BL21 (DE3), purified (Ni-NTA, thrombin digestion, RESOURCE Q, Superdex 200)
The assay is described as above.

A further assay has as its target T3, IRE1α LD (human, UniProt O75460 24-446).
T3 construct: human IRE1 (IRE1α LD), Ser24-Thr446, cloned into pGEX6p-1; It prints 'C-terminal GST', although pGEX6p-1 usually adds GST at the N-terminus; both tags were removed in any case; also called ER stress sensor IRE1; source: E. coli BL21 (DE3), purified (Glutathione Sepharose 4B, PreScission digestion, Ni-NTA, RESOURCE Q, Superdex 200); not shown: GST, C-terminal, cleaved
T3 sequence (looked up): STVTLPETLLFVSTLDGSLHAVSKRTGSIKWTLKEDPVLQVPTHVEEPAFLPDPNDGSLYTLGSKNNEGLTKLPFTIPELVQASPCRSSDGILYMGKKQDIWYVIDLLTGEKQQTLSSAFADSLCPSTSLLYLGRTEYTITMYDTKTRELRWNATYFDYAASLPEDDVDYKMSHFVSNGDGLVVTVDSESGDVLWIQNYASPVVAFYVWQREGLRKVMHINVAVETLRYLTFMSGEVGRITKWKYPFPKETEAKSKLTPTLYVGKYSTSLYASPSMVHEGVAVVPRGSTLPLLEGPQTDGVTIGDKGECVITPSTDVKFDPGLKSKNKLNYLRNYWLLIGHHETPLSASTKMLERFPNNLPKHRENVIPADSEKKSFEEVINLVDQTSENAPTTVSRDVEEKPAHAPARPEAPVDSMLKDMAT
The assay is described as above.

Assay [3] addresses T1, ERp72. The assay can be described thus: ITC; 280 µM P5 Cys55/58/190/193Ala mutant in the syringe (50 mM HEPES pH 7.2, 150 mM NaCl) titrated into 40 µM PDI or ERp72 in the cell (50 mM HEPES pH 7.2); 30 °C; one set of sites model.
Assay [4] concerns the target T2, PDI. The description is as above.
The assay “P5 (reduced form)” concerns the target B1. In words: far-Western, overlay or dot blot; reduced purified prey proteins (from 40 µM stocks, 3 µL) dotted on nitrocellulose; blocked with 5% skim milk in TBST; incubated with 0.2 µM reduced P5 in 20 mM Tris-HCl pH 7.6, 150 mM NaCl, 0.05% Tween 20 at 4 °C for 3 h; bound P5 detected with anti-P5 antiserum.

T2 sequence (P07237 18-508): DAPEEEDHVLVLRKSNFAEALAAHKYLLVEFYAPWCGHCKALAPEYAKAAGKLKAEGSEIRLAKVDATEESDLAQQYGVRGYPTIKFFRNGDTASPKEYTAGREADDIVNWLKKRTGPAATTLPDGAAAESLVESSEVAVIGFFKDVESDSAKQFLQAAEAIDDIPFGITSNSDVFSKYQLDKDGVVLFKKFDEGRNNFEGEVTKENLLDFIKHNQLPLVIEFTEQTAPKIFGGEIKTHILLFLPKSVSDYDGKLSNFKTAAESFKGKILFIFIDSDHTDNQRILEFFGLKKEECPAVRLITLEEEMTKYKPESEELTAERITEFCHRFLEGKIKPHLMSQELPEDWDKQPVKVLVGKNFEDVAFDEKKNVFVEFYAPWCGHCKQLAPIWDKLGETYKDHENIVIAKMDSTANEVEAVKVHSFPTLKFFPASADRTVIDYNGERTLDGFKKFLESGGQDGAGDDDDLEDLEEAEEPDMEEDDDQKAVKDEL

On to B1, for which the binding result with ERp72 [1], with PDI [2] and in the assay with IRE1α LD was “binds” each time.

B2: Catalytically-inactive P5 (Cys55/58/190/193Ala) mutant (enzyme, human, UniProt Q15084 20-440, looked up)
chain: LYSSSDDVIELTPSNFNREVIQSDSLWLVEFYAPWAGHAQRLTPEWKKAATALKDVVKVGAVDADKHHSLGGQYGVQGFPTIKIFGSNKNRPEDYQGGRTGEAIVDAALSALRQLVKDRLGGRSGGYSSGKQGRSDSSSKKDVIELTDDSFDKNVLDSEDVWMVEFYAPWAGHAKNLEPEWAAAASEVKEQTKGKVKLAAVDATVNQVLASRYGIRGFPTIKIFQKGESPVDYDGGRTRSDIVSRALDLFSDNAPPPELLEIINEDIAKRTCEEHQLCVVAVLPHILDTGAAGRNSYLEVLLKLADKYKKKMWGWLWTEAGAQSELETALGIGGFGYPAMAAINARKMKFALLKGSFSEQGINEFLRELSFGRGSTAPVGGGAFPTIVEREPWDGRDGELPVEDDIDLSDVELDDLGKDEL
notes: human P5 (PDIA6), Lys20-Leu440, with the four active-site cysteines changed to alanine; The limits are those stated for the human P5 gene in pET15b; also called mutated P5; source: E. coli BL21 (DE3), purified (Ni-NTA, thrombin digestion, RESOURCE Q, Superdex 200)
As a reminder, the stoichiometry N is a count of units in the complex or per binding partner. Regarding B2, the dH in the assay with ERp72 [3] was -10.7 ± 0.8 kcal/mol; in the assay with PDI [4], -4.4 ± 0.2 kcal/mol. In addition, the “stoichiometry N” value with ERp72 [3] and with PDI [4] was 0.1 in each case.

B3: ERp46 (enzyme)
chain: not shown
notes: human ERp46, Arg33-Leu432, cloned into pET15b; source: E. coli BL21 (DE3), purified (Ni-NTA, thrombin digestion, RESOURCE Q, Superdex 200)
B3: the binding result with P5 (reduced form) is “binds”.

The values above are taken from paper PMC8615271, “Functional Interplay between P5 and PDI/ERp72 to Drive Protein Folding” (Biology, 2021).
